One assay has as its target T1, peptide P19.
T1 sequence (peptide, biotin at the N-terminus, linked by the SGSG linker): SGSGQIAEPSQCPDCVVSA
Put plainly: titration of purified mAb 2 against peptides, ELISA A450; rank order. (In an ELISA, binding on a coated surface is turned into a signal by an enzyme label.)

The target of the next assay is T2, peptide P15.
T2 sequence (peptide, biotin at the N-terminus, linked by the SGSG linker): SGSGCIFSPQIEEPSQCPA
The description is as above.

The next assay has as its target T3, peptide P7.
T3 sequence (peptide, biotin at the N-terminus, linked by the SGSG linker): SGSGCIFSPQAEEPSQCPD
Described as above.

The target of a further assay is T4, peptide P25.
T4 sequence (peptide, biotin at the N-terminus, linked by the SGSG linker): SGSGQIEEPSQCADCVVSA
The description is as above.

A further assay concerns the target T5, peptide P17.
T5 sequence (peptide, biotin at the N-terminus, linked by the SGSG linker): SGSGAIEEPSQCPDCVVSA
The assay is described as above.

The target in the next assay is T6, peptide P10.
T6 sequence (peptide, biotin at the N-terminus, linked by the SGSG linker): SGSGCIFSPQIEEASQCPD
The assay is described as above.

Another assay has as its target T7, peptide P9.
T7 sequence (peptide, biotin at the N-terminus, linked by the SGSG linker): SGSGCIFSPQIEAPSQCPD
Described as above.

The next assay concerns the target peptide O28 (human). Described as above.
The target of a further assay is T8, peptide P20.
T8 sequence (peptide, biotin at the N-terminus, linked by the SGSG linker): SGSGQIEAPSQCPDCVVSA
The assay is described as above.

The target of the next assay is T9, peptide O27.
T9 construct: Negative control peptide
T9 peptide: Biotin-SGSGQSEVHCIFSPQIEEP
Put plainly: Pepscan / alanine scan peptide ELISA on streptavidin plates, A450. On the procedure:
Variations of peptides O28 and O29, where each amino acid residue was sequentially substituted for an alanine residue, were synthesised. Streptavidin-coated plates (Pierce/Thermo Scientific, #15520) were blocked with 3% BSA/PBS at room temperature. The peptides were dissolved in DMSO and stored according to manufacturer's recommendation. Streptavidin-coated plates were coated with each peptide (5 μg/mL) overnight at room temperature. Wells were washed before hybridoma supernatant or purified monoclonal antibody was added to the each well. HRP-conjugated anti-mouse antibody was added to detect bound monoclonal antibodies. ELISA substrate (Bio-Rad #172-1067) solution was prepared freshly according to the manufacturer's instructions and added to the wells. Colour change was monitored by eye and the reaction was stopped by adding 100 mM sulphuric acid. Absorbance was read at 450 nm in a microplate reader (SPECTRAmax PLUS³⁸⁴, Molecular Device, U.S.A). The crystal structure of c-Met extracellular domain, accession number 1 SHY, was obtained from Protein Data Base (PDB). Computer imaging of the epitopes were analysed by PyMol (DeLano Scientific LLC, U.S.A) software.
Pepscan analysis was used to determine the region of c-Met α-chain bound by mAb 2. […] Binding of the antibody was detected by colorimetric assay and analysed by absorbance reading at […]. […]

No end group written: not given here. *: point of attachment. Biotin = O=C1N[C@H]2[C@H](CS[C@H]2CCCCC(=O)*)N1

B1: mAb 2 (antibody, IgG1, V domains shown)
VH: QVQLKESGGGLVQPGGSLTLSCATSGFTFTDHYMSWVRQPPGKALEWLAFIRNKAKGYTTEYNASVRGRFTISRDNSQNIVYLQMNTLRTEDSATYYCARDGVGIAYWGQGTLVTVSA
VL: SIVMTQSPLSLPVSLGDQASISCRSSQSLENINGNTYLNWYFQKPGQSPQLLIYRVSNRVSGVLDRFSGSGSGTDFTLKITRVEAEDLGVYFCLQVTHVPWTFGGGTKLEIK
notes: Murine monoclonal antibody purified from ascites (or hybridoma supernatant in the first Pepscan); constant regions are not; also called full length murine mAb 2
With B1, the Increase mAb 2 binding in ascending order (rank) with peptide P19 is 6; with peptide P15, 10; with peptide P7, 8; with peptide P25 it was 3; with peptide P17, 5; in the assay with peptide P10 it was 7. For the same molecule, the Increase mAb 2 binding in ascending order (rank) in the assay with peptide P9 came out at 4; with peptide O28 (human), 11; in the assay with peptide P20, 9. The binding result in the assay with peptide O27 was “no binding”.

The values are drawn from US20160083479A1 (AGENCY FOR SCIENCE TECHNOLOGY AND RESEARCH, published 2016).
